Target: human steroid 21-hydroxylase (21-OH), 125I-labelled (human) (UniProt P08686)
Assay: 125I-21-OH + protein A; competitor: autoantibodies in pooled patient sera; irrelevant control Fab

UniProt P08686, sequence (P08686 whole entry): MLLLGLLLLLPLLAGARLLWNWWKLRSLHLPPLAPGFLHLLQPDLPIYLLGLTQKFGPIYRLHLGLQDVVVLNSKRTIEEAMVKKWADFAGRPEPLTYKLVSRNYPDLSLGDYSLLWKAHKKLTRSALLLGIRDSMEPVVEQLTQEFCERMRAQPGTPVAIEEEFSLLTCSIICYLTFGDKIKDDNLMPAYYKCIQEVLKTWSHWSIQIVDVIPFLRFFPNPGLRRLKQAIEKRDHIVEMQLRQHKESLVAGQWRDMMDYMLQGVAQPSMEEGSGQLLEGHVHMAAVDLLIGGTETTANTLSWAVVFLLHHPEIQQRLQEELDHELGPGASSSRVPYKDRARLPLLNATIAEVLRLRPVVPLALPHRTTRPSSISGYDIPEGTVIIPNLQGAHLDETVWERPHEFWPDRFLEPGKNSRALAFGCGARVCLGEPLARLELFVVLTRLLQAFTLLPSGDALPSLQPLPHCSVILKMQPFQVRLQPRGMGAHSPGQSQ

“control Fab from a TSH receptor (TSHR) mouse monoclonal antibody” showed a % inhibition of 125I-21-hydroxylase binding of under 15%.
